What was measured:
[1] = target: FLAG-ZIgA fusion protein; assay: scintillation counting of antibody-coated beads after mixing with 35S-labelled transcription/translation mix
[2] = target: FLAG-Zwt fusion protein; assay: as above
[3] = target: FLAG-ZIgA fusion protein; assay: scintillation counting of beads after mixing with 35S-labelled transcription/translation mix; negative control without antibody
[4] = target: FLAG-Zwt fusion protein; assay: as above

Row | Signal (cpm) [1] | Signal (cpm) [2] | Signal (cpm) [3] | Signal (cpm) [4] | Substance
1 | 43700 cpm | 35000 cpm |  |  | biotinylated anti-FLAG BioM5 monoclonal antibody (Sigma prod no. F-2922)
2 |  |  | 5960 cpm | 4860 cpm | streptavidin on native streptavidin (SA) beads (M-280-SA Dynabeads) (from UniProt P22629 37-163)

Source: patent US20060035265A1
